Test results taken from the RNAGym collection of RNA variant scans (doi:10.1021/acssynbio.7b00057).

B1: Pistol ribozyme (parent)
chain: GGGUCGUUGUUCCAUAAUCGCGUGGAUAUGGCACGCAAGUUUCUACCGGGCACCGUAAAUGUCCGACUGGAGCCGUUCGGGCGGCUAUAAACAGACCUCAGGCCCGAAGCGUGGCGGCACCUGCCGCCGGUGGUAAAAAAGAUCGGAAGAGCACACGUCU

Variants of: B1
Test: aptazyme ON/OFF ratio, guanine; higher = stronger switching; co-transcriptional cleavage with and without guanine

Row | Variant | aptazyme ON/OFF ratio
1 | GGGUCGUCUAUUUAUAAUCGCGUGGAUAUGGCACGCAAGUUUCUACCGGGCACCGUAAAUGUCCGACUGGAGCCGUUCGGGCGGCUAUAAACAGACCUCAGGCCCGAAGCGUGGCGGCACCUGCCGCCGGUGGUAAAAAAGAUCGGAAGAGCACACGUCU | 1.09
2 | GGGUCGUCUAUUGAUAAUCGCGUGGAUAUGGCACGCAAGUUUCUACCGGGCACCGUAAAUGUCCGACUGGAGCCGUUCGGGCGGCUAUAAACAGACCUCAGGCCCGAAGCGUGGCGGCACCUGCCGCCGGUGGUAAAAAAGAUCGGAAGAGCACACGUCU | 1.2
3 | GGGUCGUCUAUUAAUAAUCGCGUGGAUAUGGCACGCAAGUUUCUACCGGGCACCGUAAAUGUCCGACUGGAGCCGUUCGGGCGGCUAUAAACAGACCUCAGGCCCGAAGCGUGGCGGCACCUGCCGCCGGUGGUAAAAAAGAUCGGAAGAGCACACGUCU | 1.18
4 | GGGUCGUCUACAAAUAAUCGCGUGGAUAUGGCACGCAAGUUUCUACCGGGCACCGUAAAUGUCCGACUGGAGCCGUUCGGGCGGCUAUAAACAGACCUCAGGCCCGAAGCGUGGCGGCACCUGCCGCCGGUGGUAAAAAAGAUCGGAAGAGCACACGUCU | 1.33
5 | GGGUCGUCUACAUAUAAUCGCGUGGAUAUGGCACGCAAGUUUCUACCGGGCACCGUAAAUGUCCGACUGGAGCCGUUCGGGCGGCUAUAAACAGACCUCAGGCCCGAAGCGUGGCGGCACCUGCCGCCGGUGGUAAAAAAGAUCGGAAGAGCACACGUCU | 1.24
6 | GGGUCGUCUACAGAUAAUCGCGUGGAUAUGGCACGCAAGUUUCUACCGGGCACCGUAAAUGUCCGACUGGAGCCGUUCGGGCGGCUAUAAACAGACCUCAGGCCCGAAGCGUGGCGGCACCUGCCGCCGGUGGUAAAAAAGAUCGGAAGAGCACACGUCU | 1.08
7 | GGGUCGUCUAACAAUAAUCGCGUGGAUAUGGCACGCAAGUUUCUACCGGGCACCGUAAAUGUCCGACUGGAGCCGUUCGGGCGGCUAUAAACAGACCUCAGGCCCGAAGCGUGGCGGCACCUGCCGCCGGUGGUAAAAAAGAUCGGAAGAGCACACGUCU | 1.15
8 | GGGUCGUCUAACUAUAAUCGCGUGGAUAUGGCACGCAAGUUUCUACCGGGCACCGUAAAUGUCCGACUGGAGCCGUUCGGGCGGCUAUAAACAGACCUCAGGCCCGAAGCGUGGCGGCACCUGCCGCCGGUGGUAAAAAAGAUCGGAAGAGCACACGUCU | 1.22
9 | GGGUCGUCUAACGAUAAUCGCGUGGAUAUGGCACGCAAGUUUCUACCGGGCACCGUAAAUGUCCGACUGGAGCCGUUCGGGCGGCUAUAAACAGACCUCAGGCCCGAAGCGUGGCGGCACCUGCCGCCGGUGGUAAAAAAGAUCGGAAGAGCACACGUCU | 1.07
10 | GGGUCGUCUACACAUAAUCGCGUGGAUAUGGCACGCAAGUUUCUACCGGGCACCGUAAAUGUCCGACUGGAGCCGUUCGGGCGGCUAUAAACAGACCUCAGGCCCGAAGCGUGGCGGCACCUGCCGCCGGUGGUAAAAAAGAUCGGAAGAGCACACGUCU | 1.37
11 | GGGUCGUCUAUAUAUAAUCGCGUGGAUAUGGCACGCAAGUUUCUACCGGGCACCGUAAAUGUCCGACUGGAGCCGUUCGGGCGGCUAUAAACAGACCUCAGGCCCGAAGCGUGGCGGCACCUGCCGCCGGUGGUAAAAAAGAUCGGAAGAGCACACGUCU | 1.13
12 | GGGUCGUCUAUAGAUAAUCGCGUGGAUAUGGCACGCAAGUUUCUACCGGGCACCGUAAAUGUCCGACUGGAGCCGUUCGGGCGGCUAUAAACAGACCUCAGGCCCGAAGCGUGGCGGCACCUGCCGCCGGUGGUAAAAAAGAUCGGAAGAGCACACGUCU | 1.19
13 | GGGUCGUCUAUAAAUAAUCGCGUGGAUAUGGCACGCAAGUUUCUACCGGGCACCGUAAAUGUCCGACUGGAGCCGUUCGGGCGGCUAUAAACAGACCUCAGGCCCGAAGCGUGGCGGCACCUGCCGCCGGUGGUAAAAAAGAUCGGAAGAGCACACGUCU | 1.17
14 | GGGUCGUCUAUCGAUAAUCGCGUGGAUAUGGCACGCAAGUUUCUACCGGGCACCGUAAAUGUCCGACUGGAGCCGUUCGGGCGGCUAUAAACAGACCUCAGGCCCGAAGCGUGGCGGCACCUGCCGCCGGUGGUAAAAAAGAUCGGAAGAGCACACGUCU | 1.06
15 | GGGUCGUCUAUCUAUAAUCGCGUGGAUAUGGCACGCAAGUUUCUACCGGGCACCGUAAAUGUCCGACUGGAGCCGUUCGGGCGGCUAUAAACAGACCUCAGGCCCGAAGCGUGGCGGCACCUGCCGCCGGUGGUAAAAAAGAUCGGAAGAGCACACGUCU | 1.37
16 | GGGUCGUCUAUCAAUAAUCGCGUGGAUAUGGCACGCAAGUUUCUACCGGGCACCGUAAAUGUCCGACUGGAGCCGUUCGGGCGGCUAUAAACAGACCUCAGGCCCGAAGCGUGGCGGCACCUGCCGCCGGUGGUAAAAAAGAUCGGAAGAGCACACGUCU | 1.29
17 | GGGUCGUCUACCCAUAAUCGCGUGGAUAUGGCACGCAAGUUUCUACCGGGCACCGUAAAUGUCCGACUGGAGCCGUUCGGGCGGCUAUAAACAGACCUCAGGCCCGAAGCGUGGCGGCACCUGCCGCCGGUGGUAAAAAAGAUCGGAAGAGCACACGUCU | 1.06
18 | GGGUCGUCUAACCAUAAUCGCGUGGAUAUGGCACGCAAGUUUCUACCGGGCACCGUAAAUGUCCGACUGGAGCCGUUCGGGCGGCUAUAAACAGACCUCAGGCCCGAAGCGUGGCGGCACCUGCCGCCGGUGGUAAAAAAGAUCGGAAGAGCACACGUCU | 2.18
